Measurements taken from the RNAGym collection of RNA variant scans (doi:10.7554/elife.80360).

B1: Hammerhead Ribozyme (parent)
chain: ACCGGAUGUGCUUUCCGGUCUGAUGAGUCCGUGAGGACGAAACAG

Variants of: B1
Assay: self-cleavage, relative activity (ratio to wild type); higher = more cleavage; co-transcriptional

Variant | self-cleavage
ACCCGAUGUGCUUUCCGGUUUGAUGAGUCCGUGAGGACGAAACAG [G4C C20U] | 0.441
UCCGGAUGUGCUUUCCCGUCUGAUGAGUCCGUGAGGACGAAACAG [A1U G17C] | 0.393
ACCGGAAGUGCUUUCCGGUCUGAUGAGACCGUGAGGACGAAACAG [U7A U28A] | 0.77
ACCAGAUGUGCUUUCCGGUCUGAUGCGUCCGUGAGGACGAAACAG [G4A A26C] | 0.302
ACCGGAUGUGCUUUCCGGUCUCAUGAGUCCGUGAGGACGAUACAG [G22C A41U] | 0.416
ACCGGAUGUGCUUUACGGUCUGAUGACUCCGUGAGGACGAAACAG [C15A G27C] | 0.435
ACCGGAUGUGCGUUCCGGUCUGAUGAGUCCGUGAUGACGAAACAG [U12G G35U] | 0.583
ACCGGAUGUGCUUUCCGGUCUGAUGAAGCCGUGAGGACGAAACAG [G27A U28G] | 0.695
ACCGUAUGUGCUUUCCGGUCUGAUGAGUCCGUGAGGAAGAAACAG [G5U C38A] | 0.431
ACCGGAUGUGCUUUCCGGUCUGAUGAGUCCGUGAUUACGAAACAG [G35U G36U] | 0.463
ACCGGAUGUGCUUUCCGGUUUGAUGAGUUCGUGAGGACGAAACAG [C20U C29U] | 0.395
ACCGGAUGUGCUUUCCGGUUUGAUGAGUACGUGAGGACGAAACAG [C20U C29A] | 0.296
ACCGGAUGUGCUUUUCGGUCUGAUGAGUCCGCGAGGACGAAACAG [C15U U32C] | 0.93
ACUGGAUGUGCUUUCCGGUCUGAUGAGUCCGUGCGGACGAAACAG [C3U A34C] | 0.851
ACCGGAUGUGUUUUCCGGUCUGAUGAGUCCGCGAGGACGAAACAG [C11U U32C] | 0.964
ACCGGAUGUGGUUUCCGGUCUGAGGAGUCCGUGAGGACGAAACAG [C11G U24G] | 1.3
ACCGGAUGUGCUUUCCGGUCUGAUGAGUCCGUGAGGACGAAGCGG [A42G A44G] | 0.544
ACCGGAUGUGCUUCCCGGUCUGAUGAGUCCGUGAGGAUGAAACAG [U14C C38U] | 1.15
ACCGGGUGUGCUUUCCGGACUGAUGAGUCCGUGAGGACGAAACAG [A6G U19A] | 0.278

Variant | self-cleavage
ACAGGAUGUGCUUUCCGUUCUGAUGAGUCCGUGAGGACGAAACAG [C3A G18U] | 0.324
ACCGGAUGUGCAUUCCGGUCUGAUGAGUCCGUGAUGACGAAACAG [U12A G35U] | 0.629
ACCGGAUGUGCUUUCCGGUCUGAUGAGUCCGUGAGCACGAAACAG [G36C] | 0.52
ACCGGAUGUGCUUUCCGGUCUGAUGAUUCCGUAAGGACGAAACAG [G27U G33A] | 0.754
AACGGAUGUGCUUUCCGGUCUGAUGAGUCCGUGAGGACGAAAUAG [C2A C43U] | 0.308
ACCGGAUGGGCUUUCCGAUCUGAUGAGUCCGUGAGGACGAAACAG [U9G G18A] | 0.393
ACCGGAUGUGUUUUCCGGGCUGAUGAGUCCGUGAGGACGAAACAG [C11U U19G] | 0.329
ACCGAUUGUGCUUUCCGGUCUGAUGAGUCCGUGAGGACGAAACAG [G5A A6U] | 0.696
AGCGGAUGUGCUUUCCGGUCUGAUGAGUCCGUGAGGAGGAAACAG [C2G C38G] | 0.317
ACCGGAUGUGCUUUCCGGUCUGAUGAGUCCCUGAGAACGAAACAG [G31C G36A] | 0.527
ACCGGAUGUGCUUUCCGGUCUGAUGAGUCCGUGAGUACGAAUCAG [G36U A42U] | 0.329
ACCGGAUGUGCUUUCCGGUUUGAUGAGUCCGUGAAGACGAAACAG [C20U G35A] | 0.412
ACCGGAUGUGCUUUCCGGUCUGAUGAGUCCGAGAGGACGAAACUG [U32A A44U] | 0.633
ACCGGAUGUGCUUUCCGGUCUGUUGAGUCCGUGAGGACAAAACAG [A23U G39A] | 0.331
AACGGAUGUGCUGUCCGGUCUGAUGAGUCCGUGAGGACGAAACAG [C2A U13G] | 0.86
ACCGGAUGUGCUUUGCGGUCUGAUGAGUCCGUGAGUACGAAACAG [C15G G36U] | 0.374
ACCGGAUGUGCUUUCCGGUCUGAUGAGUUCGUGAGGACGAAACAA [C29U G45A] | 0.454
ACUGGAUGUGCUUUCCGGUCUUAUGAGUCCGUGAGGACGAAACAG [C3U G22U] | 0.381
ACUGGAUGUGCUUUCCGGUCUCAUGAGUCCGUGAGGACGAAACAG [C3U G22C] | 0.341

Variant | self-cleavage
AUUGGAUGUGCUUUCCGGUCUGAUGAGUCCGUGAGGACGAAACAG [C2U C3U] | 0.588
ACCGGUUGUGCUUUCCGGUCCGAUGAGUCCGUGAGGACGAAACAG [A6U U21C] | 0.616
ACCGGAUGUGCUUGCAGGUCUGAUGAGUCCGUGAGGACGAAACAG [U14G C16A] | 0.642
ACCGGAUGUGCUUUCCAGUCUGAUGAGUCCGUGAGGACGUAACAG [G17A A40U] | 0.354
ACCGGAUGUGCUUGCCGGUCUGAUGAGUACGUGAGGACGAAACAG [U14G C29A] | 0.677
ACCGGAUGUGCUUUCCGGUCUGGGGAGUCCGUGAGGACGAAACAG [A23G U24G] | 0.283
ACCAGAUGUGCUUUCCGGUUUGAUGAGUCCGUGAGGACGAAACAG [G4A C20U] | 0.358
ACCGGAUGUGCGUUCCGGUCUGAUGAGUCCAUGAGGACGAAACAG [U12G G31A] | 1.2
ACCGGAUGUGCUUUCCGUUAUGAUGAGUCCGUGAGGACGAAACAG [G18U C20A] | 0.326
ACCGCAUGUGCUUUCAGGUCUGAUGAGUCCGUGAGGACGAAACAG [G5C C16A] | 1.19
ACCGGAUGUGCUUGCCGGUCUGAUGAGUCCGUGGGGACGAAACAG [U14G A34G] | 0.652
ACCGGGUGUGCUUUCCGGUCUGAUGAGUCCGUGAGGACGGAACAG [A6G A40G] | 0.213
ACCCGAUGUGUUUUCCGGUCUGAUGAGUCCGUGAGGACGAAACAG [G4C C11U] | 0.331
ACCGGAUGUCCAUUCCGGUCUGAUGAGUCCGUGAGGACGAAACAG [G10C U12A] | 0.954
ACCGGAUGUGCUUUCCGGUCUGAUGAGUCCGUGAGAACGAAAUAG [G36A C43U] | 0.378
ACCGGAUGUGCCUUGCGGUCUGAUGAGUCCGUGAGGACGAAACAG [U12C C15G] | 0.474
ACCGGAUGUACUUUCCGGUCUGAUGAGUCCUUGAGGACGAAACAG [G10A G31U] | 0.938
ACCGGAUGGGCUUUCAGGUCUGAUGAGUCCGUGAGGACGAAACAG [U9G C16A] | 0.835
ACCGGAUGUGCUUCCCGGUGUGAUGAGUCCGUGAGGACGAAACAG [U14C C20G] | 0.301
